# Test results as given in publication PMC8216847.
# Biological target: SARS-CoV-1 S-2P (SARS-CoV-1)
substance,measurement,value
CV3-25 (antibody),IC50 of neutralisation of SARS-CoV-1 pseudovirus,2.1 µg/mL
